Laboratory results published in PMC3912200, “Structural and Functional Characterization of Cargo-Binding Sites on the μ4-Subunit of Adaptor Protein Complex 4” (PLoS ONE, 2014).
Numbering of substitutions follows the chain as printed. Names and notes keep the numbering of the source.

B1: R441A: μ4 mutant, μ2-binding site, Y2H construct (protein)
chain: MISQFFILSSKGDPLIYKDFRGDSGGRDVAELFYRKLTGLPGDESPVVMHHHGRHFIHIRHSGLYLVVTTSENVSPFSLLELLSRLATLLGDYCGSLGEGTISRNVALVYELLDEVLDYGYVQTTSTEMLRNFIQTEAVVSKPFSLFDLSSVGLFGAETQQSKVAPSSAASRPVLSSRSDQSQKNEVFLDVVERLSVLIASNGSLLKVDVQGEIRLKSFLPSGSEMRIGLTEEFCVGKSELRGYGPGIRVDEVSFHSSVNLDEFESHRILRLQPPQGELTVMRYQLSDDLPSPLPFRLFPSVQWDRGSGRLQVYLKLRCDLLSKSQALNVRLHLPLPRGVVSLSQELSSPEQKAELAEGALRWDLPRVQGGSQLSGLFQMDVPGPPGPPSHGLSTSASPLGLGPASLSFELPRHTCSGLQVRFLRLAFRPCGNANPHKWVAHLSHSDAYVIRI
modifications: left off: Gal4 activation domain, end not stated, kept
B2: F188A: μ4 mutant, μ2-binding site, Y2H construct (protein)
chain: B1 chain with F188A, A441R
modifications: left off: Gal4 activation domain, end not stated, kept
B3: D190S: μ4 mutant, μ2-binding site, Y2H construct (protein)
chain: B1 chain with D190S, A441R
modifications: left off: Gal4 activation domain, end not stated, kept
B4: K217A: μ4 mutant, μ2-binding site, Y2H construct (protein)
chain: B1 chain with K217A, A441R
modifications: left off: Gal4 activation domain, end not stated, kept
B5: W439S: μ4 mutant, μ2-binding site, Y2H construct (protein)
chain: B1 chain with W439S, A441R
modifications: left off: Gal4 activation domain, end not stated, kept
B6: S254K: μ4 mutant, μ4-binding site, Y2H construct (protein)
chain: B1 chain with S254K, A441R
modifications: left off: Gal4 activation domain, end not stated, kept
B7: S257Q: μ4 mutant, μ4-binding site, Y2H construct (protein)
chain: B1 chain with S257Q, A441R
modifications: left off: Gal4 activation domain, end not stated, kept
B8: T280A: μ4 mutant, μ4-binding site, Y2H construct (protein)
chain: B1 chain with T280A, A441R
modifications: left off: Gal4 activation domain, end not stated, kept
B9: T280R: μ4 mutant, μ4-binding site, Y2H construct (protein)
chain: B1 chain with T280R, A441R
modifications: left off: Gal4 activation domain, end not stated, kept
B10: F264A: μ4 mutant, μ4-binding site, Y2H construct (protein)
chain: B1 chain with F264A, A441R
modifications: left off: Gal4 activation domain, end not stated, kept
B11: L261K: μ4 mutant, μ4-binding site, Y2H construct (protein)
chain: B1 chain with L261K, A441R
modifications: left off: Gal4 activation domain, end not stated, kept
B12: E265R: μ4 mutant, μ4-binding site, Y2H construct (protein)
chain: B1 chain with E265R, A441R
modifications: left off: Gal4 activation domain, end not stated, kept
B13: µ4-HA: HA-epitope-tagged full-length wild-type μ4, overexpressed (protein)
chain: B1 chain with A441R
modifications: left off: HA, end not stated, kept

These molecules were tested on cytosolic tail of APP (assay: Yeast two-hybrid (Y2H) analysis of μ4 with the APP tail). Conditions: mutations at μ2-binding site; growth on -His plates, 30°C.
Format: binding
Description: The cloning of the tail of APP (residues 649–695), full-length human μ4, and all the other yeast two-hybrid (Y2H) constructs, and the cloning of the C-terminal domain of μ4 for expression in E. coli was described previously. To generate a construct for mammalian expression, full-length human μ4 was obtained by PCR amplification and cloned into the EcoRI and SalI sites of pEGFP-N1 (BD BiosciencesClontech, Mountain View, CA) including a stop-codon before the GFP coding sequence. The cloning of APP-GFP carrying the double mutation F615P/D664A was described previously. Single amino acid substitutions were introduced using the QuikChange mutagenesis kit (Stratagene, La Jolla, CA). Y2H assays were performed as previously described. A set of pCI-neo (Promega) constructs encoding hemagglutinin (HA)-epitope tagged wild-type or mutants of human μ4 was a generous gift of J. Bonifacino and R. Mattera (Cell Biology and Metabolism Program, NICHD, NIH). The nucleotide sequences of all recombinant constructs were confirmed by dideoxy sequencing.
Figure 1 Yeast two-hybrid analysis of the interaction of μ4 with the cytosolic tail of APP. (A) Superposition of the surface and ribbon representations of human wild-type μ4 C-terminal domain (pdb entry 3L81). The insets show an enlargement of the μ4-binding site and the putative μ2-binding site with residues chosen for the yeast two-hybrid (Y2H) analysis. The APP peptide (TYKFFEQ; stick model) bound to the μ4-binding site is in yellow, and the EGFR peptide (FYRALM; stick model; pdb entry 1BW8) superposed to the putative μ2-binding site is in magenta. (B) Sequence alignment of the C-terminal domain of the μ subunits of known crystal structure depicting critical residues at the corresponding μ2- and μ4-binding sites. Disordered loops are in yellow letters, and arrows and cylinders represent β-strands and α-helices, respectively. M.m., Mus musculus; R.n., Rattus norvegicus; H.s., Homo sapiens. (C) and (D) Yeast were co-transformed with plasmids encoding Gal4bd fused to the cytosolic tail of the amyloid precursor protein (APP) indicated on the left, and Gal4ad fused to wild-type or mutant μ4 constructs indicated on top of each panel. (C) Y2H analysis of μ4 with mutations on the YKFFE binding site (μ4-binding site). (D) Y2H analysis of μ4 with mutations on a putative YXXØ binding site (μ2-binding site). Mouse p53 fused to Gal4bd and SV40 large T antigen (T Ag) fused to Gal4ad were used as controls. Co-transformed cells were spotted onto His-deficient (-His) or His-containing (+His) plates and incubated at 30°C. Growth is indicative of interactions. Some mutations on either of the two sites affect the interaction of μ4 with the cytosolic tail of APP.

| Molecule | effect of mutation on interaction of the APP tail with μ4 (Y2H) |
| --- | --- |
| B1 | little or no effect |
| B2 | little or no effect |
| B3 | little or no effect |
| B4 | little or no effect |
| B5 | little or no effect |

Same assay, conditions: mutations at μ4-binding site; growth on -His plates, 30°C

| Molecule | effect of mutation on binding to the APP YKFFE signal (Y2H) |
| --- | --- |
| B6 | little or no effects |
| B7 | little or no effects |
| B8 | little or no effects |
| B9 | little or no effects |
| B10 | drastically reduced |
| B11 | completely abolished |
| B12 | completely abolished |

These molecules were tested on APP-GFP (assay: Distribution of APP-GFP in MDA-MB-231 cells). Conditions: HA-epitope-tagged constructs, 24 h after transfection; EEA1/TGN46 immunofluorescence.
Format: cell-based, human
Protocol: H4 human neuroglioma or MDA-MB-231 human mammary gland epithelial cells obtained from the American Type Culture Collection (Manassas, VA) were maintained in DMEM (H4) or DMEM/F12 (MDA-MB-231) supplemented with 10% (v/v) fetal bovine serum (FBS), 100 U/ml penicillin and 100 µg/ml streptomycin (Life Technologies). Transfections were carried out using Lipofectamine 2000 (Life Technologies) for 1 h at 37°C in the absence of FBS, and cells were analyzed 16, 24 or up to 36-h after transfection, for which we observed no notorious signs of loss in cell viability. SDS-PAGE, immunoblotting, and immunoprecipitation were performed as described. H4 cells after 16 h of transfection were washed twice with cold phosphate buffered saline supplemented with 0.1 mM CaCl2 and 1 mM MgCl2 (PBS-Ca/Mg), and incubated at 4°C for 1 h in lysis buffer (50 mM Tris-HCl pH 7.4, 150 mM NaCl, 1 mM EDTA, 1% (v/v) Triton X-100, and a cocktail of protease inhibitors). Soluble extracts were subjected to overnight immunoprecipitation at 4°C either with rabbit anti-HA-epitope antibody (kindly provided by R. Hegde, MRC Laboratory of Molecular Biology, Cambridge, UK) or with mouse antibody to the ε subunit of AP-4 (BD Biosciences) immobilized onto protein A- or a 1∶1 mix of protein A- and protein-G Sepharose beads (GE Healthcare), respectively. Soluble extracts and immunoprecipitates were processed by SDS-PAGE and blotted with horseradish peroxidase-conjugated mouse anti-HA antibody (Macs Miltenyi Biotec) or with mouse antibody to the ε subunit of AP-4.
Indirect immunofluorescence staining of fixed, permeabilized cells was performed as previously described, using sheep polyclonal antibody anti-TGN46 (Serotec), and mouse monoclonal antibody anti-EEA1 (BD Biosciences) or rabbit polyclonal antibody anti-EEA1 (Santa Cruz Biotechnology), followed by the secondary antibodies Alexa-647–conjugated donkey anti-mouse IgG, Alexa-594–conjugated donkey anti-rabbit IgG, or Alexa-594– or -647–conjugated donkey anti-sheep IgG (Life Technologies). Images were acquired either with an Olympus FluoView FV1000 scanning unit fitted on an inverted Olympus IX81 microscope and equipped with a PlanApo 60x oil immersion objective (NA 1.40; Olympus, Melville, NY), using similar settings as described previously, or with an AxioObserver.D1 microscope equipped with a PlanApo 63x oil immersion objective (NA 1.4), and an AxioCam MRm digital camera (Carl Zeiss). Quantitative analysis of colocalization was performed as we previously described, with minor modifications. Briefly, 12-bit images were acquired under identical settings avoiding signal saturation, and corrected for noise, cross-talk, and background signals on each set of images. The signals of TGN46 or EEA1 in each set of images were used in Image J (version 1.44o; Wayne Rasband, NIH, http://imagej.nih.gov) to define masks regarded as Golgi/TGN or early endosomes localization, respectively. The percentage of localization in each compartment was calculated for each cell (n = 10–15) subtracting either the Golgi/TGN or the early endosomes mask from the total integrated pixel intensity of APP-GFP, and the remainder of the signal was considered as in the ‘rest of the cell’.
We next examined the functional role of both the μ2- and the μ4-binding site of μ4 on the intracellular trafficking of APP. We have shown that the YKFFE-μ4 interaction is functional in vivo because its disruption by depletion of μ4 by RNAi produces a shift in the distribution of APP from endosomes to the TGN [18]. To evaluate now the function of each binding site for tyrosine-based signals, we tested a dominant-negative effect by overexpressing untagged or HA-epitope-tagged full-length wild-type μ4 or the variants untagged or HA-epitope-tagged μ4-D190A, μ4-D190S, μ4-F255A or μ4-R283D in H4 neuroglioma cells, as well as in MDA-MB-231 mammary gland epithelial cells, and examined by immunofluorescence the distribution of APP-GFP. […]

| Molecule | change in distribution of APP |
| --- | --- |
| B13 | no apparent change in the distribution of APP |
